Target: T1, Parkin R0RBR module (RING0, RING1, IBR, RING2), wild type (rat), Q9JK66
T1 chain: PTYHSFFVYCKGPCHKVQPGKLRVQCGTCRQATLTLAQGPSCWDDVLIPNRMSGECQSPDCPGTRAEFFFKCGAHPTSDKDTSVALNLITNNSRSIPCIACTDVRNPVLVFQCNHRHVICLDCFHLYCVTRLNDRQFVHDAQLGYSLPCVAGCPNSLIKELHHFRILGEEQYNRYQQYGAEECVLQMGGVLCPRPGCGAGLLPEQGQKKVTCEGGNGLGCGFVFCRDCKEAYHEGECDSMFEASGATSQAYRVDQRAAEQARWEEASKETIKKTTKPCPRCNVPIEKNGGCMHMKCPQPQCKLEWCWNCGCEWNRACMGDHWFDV
Test: ITC; R0RBR (wild type or L266K) titrated with Ubl or pUbl; 20°C; 50 mM Tris–HCl pH 7.4, 150 mM NaCl, 1 mM TCEP; stoichiometry determined experimentally

B1: Parkin Ubl domain (ubiquitin-like domain), unmodified (domain or fragment)
chain: MIVFVRFNSSYGFPVEVDSDTSIFQLKEVVAKRQGVPADQLRVIFAGKELQNHLTVQNCDLEQQSIVHIVQRPQRK
modifications: not checked
B1 gave a Kd of 16 µM.

Reference: article PMC4609182
